Legend:
[1] = molecular target: SCRM KiDoK peptide (Arabidopsis); assay: BLI; Octet Red96; biotinylated SCRM KiDoK peptide (500 nM) loaded on streptavidin probes, MPK6 as analyte (150 nM and two-fold dilutions); 25 °C; 1x PBS, 2 % DMSO, 0.02 % Tween20, 0.1 % BSA; 1:1 model, Kd from steady-state analysis; without kC9
[2] = molecular target: SCRM KiDoK peptide (Arabidopsis); assay: ITC; Malvern PEAQ-ITC, 25 °C, PBS pH 7.4 with 2% DMSO; SCRM KiDoK peptide with MPK6ΔNt (29–305); without kC9
[3] = molecular target: SCRM KiDoK peptide (Arabidopsis); assay: BLI; as a1, but MPK6 pre-incubated with the small molecule kC9 (MPK6:kC9 1:1.5 in the methods, 1:2 in the legend) as analyte
[4] = molecular target: SCRM KiDoK peptide (Arabidopsis); assay: ITC; as a3, but MPK6ΔNt (29–305) pre-incubated with the small molecule kC9

MPK6ΔNt (29–305), sequence (Q39026 29-305, stated change not applied): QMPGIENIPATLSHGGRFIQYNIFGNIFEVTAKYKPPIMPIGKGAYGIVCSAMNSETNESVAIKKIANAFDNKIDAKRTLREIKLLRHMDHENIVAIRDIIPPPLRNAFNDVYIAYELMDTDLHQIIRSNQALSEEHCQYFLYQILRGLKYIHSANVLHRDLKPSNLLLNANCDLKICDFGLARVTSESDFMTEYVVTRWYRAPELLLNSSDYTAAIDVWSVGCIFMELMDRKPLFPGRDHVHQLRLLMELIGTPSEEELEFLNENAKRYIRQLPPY

- Kd [1]: 40.1 nM
- Kd [2]: 43.4 nM
- Kd [3]: 856 nM
- Kd [4]: 1400 nM
Substance: MPK6ΔNt (29–305) (from UniProt Q39026 29-305) (domain or fragment)

— doi:10.1101/2024.07.29.605519
